Experimental findings from paper PMC6155552, “Arabidopsis thaliana alcohol dehydrogenase is differently affected by several redox modifications” (PLoS ONE, 2018) are described below.

The Km is the concentration of substrate that gives half-maximal velocity. Usually kcat stands for the maximal rate divided by the concentration of active sites. Usually kcat/Km stands for the second-order rate constant that governs catalysis at low substrate concentration.

The target of data set [1] is T1, ADH (recombinant A. thaliana alcohol dehydrogenase, ADH1, At1g77120) (Arabidopsis thaliana, UniProt P06525).
T1 construct: tag removal not mentioned
T1 sequence (P06525 1-379): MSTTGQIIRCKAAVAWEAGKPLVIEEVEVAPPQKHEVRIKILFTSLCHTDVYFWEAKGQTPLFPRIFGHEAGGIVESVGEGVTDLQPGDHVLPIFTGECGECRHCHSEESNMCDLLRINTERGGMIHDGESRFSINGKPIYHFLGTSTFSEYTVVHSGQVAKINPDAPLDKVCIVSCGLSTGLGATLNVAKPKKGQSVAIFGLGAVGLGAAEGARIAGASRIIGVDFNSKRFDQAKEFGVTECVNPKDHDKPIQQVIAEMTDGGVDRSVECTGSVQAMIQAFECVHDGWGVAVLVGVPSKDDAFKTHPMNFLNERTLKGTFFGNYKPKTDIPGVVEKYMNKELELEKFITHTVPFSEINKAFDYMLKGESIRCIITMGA
The data set can be described thus: protection of activity against inactivation by H2O2 or DEA/NO. It counts as biochemical. To be noted: 0.02-0.2 mM NADH; 0.5 mM H2O2 or DEA/NO; 100 mM Tris-Cl pH 7.5; room temperature.

Substrate in data set [2]: NC(=O)c1ccc[n+]([C@@H]2O[C@H](COP(=O)(O)OP(=O)(O)OC[C@H]3O[C@@H](n4cnc5c(N)ncnc54)[C@H](O)[C@@H]3O)[C@@H](O)[C@H]2O)c1
The data set is described as follows: microplate ADH activity assay, non-linear regression. To be noted: ethanol-to-acetaldehyde direction; NAD+ varied 0-0.8 mM; 5 mM DTT. It counts as biochemical, Arabidopsis thaliana. The source says: microplate ADH activity assay, non-linear regression on ADH (recombinant A. thaliana alcohol dehydrogenase, ADH1, At1g77120)

For `NC(=O)C1=CN([C@@H]2O[C@H](COP(=O)(O)OP(=O)(O)OC[C@H]3O[C@@H](n4cnc5c(N)ncnc54)[C@H](O)[C@@H]3O)[C@@H](O)[C@H]2O)C=CC1` [NADH], the “protection of activity against inactivation by H2O2 or DEA/NO” value in data set [1] is given as “presence of NADH allows the enzyme to keep a significantly higher activity level”.

B1: ADH (recombinant A. thaliana alcohol dehydrogenase, ADH1, At1g77120) (Arabidopsis thaliana) (protein)
chain: MSTTGQIIRCKAAVAWEAGKPLVIEEVEVAPPQKHEVRIKILFTSLCHTDVYFWEAKGQTPLFPRIFGHEAGGIVESVGEGVTDLQPGDHVLPIFTGECGECRHCHSEESNMCDLLRINTERGGMIHDGESRFSINGKPIYHFLGTSTFSEYTVVHSGQVAKINPDAPLDKVCIVSCGLSTGLGATLNVAKPKKGQSVAIFGLGAVGLGAAEGARIAGASRIIGVDFNSKRFDQAKEFGVTECVNPKDHDKPIQQVIAEMTDGGVDRSVECTGSVQAMIQAFECVHDGWGVAVLVGVPSKDDAFKTHPMNFLNERTLKGTFFGNYKPKTDIPGVVEKYMNKELELEKFITHTVPFSEINKAFDYMLKGESIRCIITMGA
notes: tag removal not mentioned
On to B1, for which, in data set [2], the Km came to 166 ± 17 µM, the kcat worked out at 31.5 ± 2.7 s⁻¹ and the kcat/Km was determined as 191000 ± 8000 M⁻¹ s⁻¹.

B2: ADH (recombinant A. thaliana alcohol dehydrogenase, ADH1, At1g77120) (Arabidopsis thaliana; C243S) (protein)
chain: MSTTGQIIRCKAAVAWEAGKPLVIEEVEVAPPQKHEVRIKILFTSLCHTDVYFWEAKGQTPLFPRIFGHEAGGIVESVGEGVTDLQPGDHVLPIFTGECGECRHCHSEESNMCDLLRINTERGGMIHDGESRFSINGKPIYHFLGTSTFSEYTVVHSGQVAKINPDAPLDKVCIVSCGLSTGLGATLNVAKPKKGQSVAIFGLGAVGLGAAEGARIAGASRIIGVDFNSKRFDQAKEFGVTESVNPKDHDKPIQQVIAEMTDGGVDRSVECTGSVQAMIQAFECVHDGWGVAVLVGVPSKDDAFKTHPMNFLNERTLKGTFFGNYKPKTDIPGVVEKYMNKELELEKFITHTVPFSEINKAFDYMLKGESIRCIITMGA
notes: tag removal not mentioned
Regarding B2, in data set [2], the Km turned out to be 251 ± 17 µM, the kcat was found to be 52.1 ± 3 s⁻¹ and the kcat/Km was determined as 208000 ± 5000 M⁻¹ s⁻¹.
